From patent US20230220078A1 (NAVI BIO THERAPEUTICS, published 2023)

B1: NECTIN4-scFv-L1 (scFv, V domains shown)
VH: AVTLDESGGGLQAPGGGLSLVCRASGFTFSSHGMFWVRQAPGKGLEFVAGISDAGSWTGYGAAVKGRATISRDSGQSTVRLQLNNLRAEDTGIYYCAKSAGDWYGADDIDAWGHGTEVIVSS
VL: ALTQPSSVSANPGETVKITCSGGSSNYYGWYQQKSPGSAPVTLIYNNNKRPSDIPSRFSASKSGSTHTLTITGVRAEDEAVYFCGGWDKSAGIFGAGTTLTVL
notes: Chicken-derived scFv, tested as purified scFv
B2: NECTIN4-scFv-S6 (scFv, V domains shown)
VH: TVTLDESGGGLQTPGGGLSLVCKGSGFTFSSNGMAWVRQAPGKGLEFVAGVNAAGSWTGYGAAVKGRATISRDNGQSTVRLQLNDLRAEDTGTYYCAKTADDWYGADDIDAWGHGTEVIVSS
VL: ALTQPSSVSTNLGETVEITCSGSSGYGYGWYQQKSPGSAPVTVIYSNDKRPSDIPSRFSGSASGSTATLTITGVRAEDEAVYLCGGYDSSASYVGIFGAGTTLTVL
notes: as for B1
B3: NECTIN4-scFv-S21 (scFv, V domains shown)
VH: AVTLDESGGGLQTPGGALSLVCKASGFTFSSYAMMWVRQAPGKGLEYIAGIRSDGRYTYYGAAVKGRATISRDNGQSTVRLQLNNLRAEDTGTYYCAKSGVTDTSSSTYSSASNIDAWGHGTEVIVSS
VL: ALTQPSSVSANLGGTVKITCSGGSGSYGWYQQKSPGSAPVTLIYANTNRPSDIPSRFSGSKSGSTSTLTITGVQAEDVAVYYCGSRDSSYVGIFGAGTTLTVL
notes: Chicken-derived scFv from a pComb3X phage library, tested as purified scFv; also called anti-PVRL4 scFv S21; NECTIN4-scFv-521

Key:
[1] = biological target: T1, PVRL4_864 (94-957, 864 bps, r864p) recombinant fragment of Nectin-4 (PVRL4_HUMAN) (human, UniProt Q96NY8 32-319); assay: ELISA titration of purified scFv on PVRL4 864
T1 construct: His-tagged and purified on Ni-sepharose from a 6M urea lysate; also called his-PVRL4_864
T1 sequence (looked up): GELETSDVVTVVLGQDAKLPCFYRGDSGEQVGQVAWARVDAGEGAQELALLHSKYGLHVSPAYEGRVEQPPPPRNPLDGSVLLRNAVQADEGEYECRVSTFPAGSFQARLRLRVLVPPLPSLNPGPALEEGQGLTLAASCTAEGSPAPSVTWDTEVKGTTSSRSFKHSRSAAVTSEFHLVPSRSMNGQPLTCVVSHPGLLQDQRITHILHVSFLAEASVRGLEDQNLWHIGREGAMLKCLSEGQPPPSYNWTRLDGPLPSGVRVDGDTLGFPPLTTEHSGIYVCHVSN

[2] = biological target: T1, PVRL4_864 (94-957, 864 bps, r864p) …; assay: competitive ELISA of purified scFv on r864p
[3] = biological target: T1, PVRL4_864 (94-957, 864 bps, r864p) …; assay: competitive ELISA of purified scFv on r864p; competitive ELISA, purified scFv S21 on r864p

Binder | concentration of scFv at OD450 nm value of 1 [1] [µg/mL] | 50% concentration [2] [µg/mL] | Kd [2] [nM] | Kd [3] [nM]
B1 | 0.04 | 34.7 | 939 | –
B2 | 0.31 | 34.9 | 942 | –
B3 | 0.02 | 52.5 | – | 1410
